Patent US20220064272A1 (TAUC3 BIOLOGICS, published 2022)
Changes are numbered by the printed parent chain. Where “and” joins values, the source holds several entries; their conditions need not be identical. Equal entries are not always repeated. Blank lines part the entries; values can stand above or below the binder they belong to.

Assays:
[1] = target: T1, TauC3 (C-terminally truncated tau fragment ending at aspartate 421 of htau40) (human, UniProt P10636 1-738); assay: binding ELISA on coated TauC3, OD650
T1 construct: Generated and purified by Genscript; also called Human TauC3; recombinant TauC3 protein
T1 sequence (P10636 other isoform, or with tags, fused parts or gaps): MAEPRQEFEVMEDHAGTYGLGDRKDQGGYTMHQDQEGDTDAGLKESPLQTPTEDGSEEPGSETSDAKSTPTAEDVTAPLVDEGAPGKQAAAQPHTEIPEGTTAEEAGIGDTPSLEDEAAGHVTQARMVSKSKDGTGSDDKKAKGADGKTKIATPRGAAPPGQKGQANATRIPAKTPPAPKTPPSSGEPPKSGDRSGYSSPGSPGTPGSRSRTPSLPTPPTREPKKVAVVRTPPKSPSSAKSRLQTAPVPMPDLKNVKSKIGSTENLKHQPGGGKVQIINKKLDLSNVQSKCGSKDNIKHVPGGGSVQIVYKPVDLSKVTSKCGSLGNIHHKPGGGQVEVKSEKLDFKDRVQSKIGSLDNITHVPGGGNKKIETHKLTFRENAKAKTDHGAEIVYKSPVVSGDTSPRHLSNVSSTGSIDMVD
Procedure, shortened: (§1)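 Binding was measured by ELISA, with absorbance read at 650 nm, on coated TauC3 antigen that Genscript made and purified. ExpiCHO cells were used to express the chimeric or humanized IgG4κ antibodies. EC50 was obtained from the antibody concentration-response.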

[2] = target: T1, TauC3 (C-terminally truncated tau …); assay: binding ELISA on coated TauC3, OD650; remark: listed apart in the source
Procedure, shortened: as §1

[3] = target: T1, TauC3 (C-terminally truncated tau …); assay: binding ELISA on coated TauC3, OD650; remark: listed apart in the source
Procedure, shortened: as §1

[4] = target: T1, TauC3 (C-terminally truncated tau …); assay: binding ELISA on coated TauC3, OD650; left table (HC variants)
Procedure, shortened: as §1

[5] = target: T1, TauC3 (C-terminally truncated tau …); assay: binding ELISA on coated TauC3, OD650; remark: listed apart in the source
Procedure, shortened: as §1

[6] = target: T1, TauC3 (C-terminally truncated tau …); assay: SPR (Biacore) kinetics, TauC3 amine-coupled on CM5, 1:1 global fit
Procedure, shortened: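 Each purified antibody was injected at a series of concentrations over a CM5 chip carrying amine-coupled purified antigen, with readout by Biacore surface plasmon resonance. A global fit gave Kd together with the association and dissociation rates. The fit model was 1:1.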

[7] = target: T1, TauC3 (C-terminally truncated tau …); assay: binding ELISA on coated TauC3, OD650; right table (HM variants)
Procedure, shortened: as §1

[8] = target: T1, TauC3 (C-terminally truncated tau …); assay: binding ELISA on TauC3 after 21 days at 37 C in PBS or mouse, human, cynomolgus serum, with non-incubated control
Procedure: Purified samples of the chimeric and humanized antibodies were incubated in mouse, human and cynomolgus serum for 21 days. The binding of the Tau01 HMKE, HMKM, HMKN, HMKO, HMKP candidate antibodies which had been incubated in the 3 different serums were compared with an antibody incubated in PBS and a 4° C. positive control sample by binding ELISA to TauC3 (FIG. 37). The Tau01 HMKE, HMKM, HMKN, HMKO, HMKP candidate antibodies retained their binding capability after being incubated in mouse, human and cynomolgus serum.

[9] = target: T1, TauC3 (C-terminally truncated tau …); assay: Biacore off-rate ranking, TauC3 amine-coupled on CM5, one antibody concentration; one-phase exponential decay fit
Procedure: (§2) To further evaluate the binding data observed on the Octet, an off-rate ranking experiment was performed on the Biacore 200 instrument. Biacore offers greater selectivity than the Octet and facilitated the immobilization of TauC3 onto a CM5 chip via amine coupling which stabilizes the antigen. This produces higher quality data with stable baselines and good reproducible responses. Once TauC3 is immobilized, one concentration (5 nM) of antibody is added, followed by a dissociation and regeneration step (Section 8.20). The off-rates were fitted using a two-phase decay model (FIG. 25B) or a one phase decay fitting only the second off-rate (FIG. 25A). The candidates were then ranked based on the off-rates obtained using the fits and compared. The data agreed with the Octet results (albeit with a different ranking order), highlighting Tau01 HMKM, HMKO, HMKP, HMKN and HMKE as the humanized variants with the slowest off-rates. The lack of binding of FL Tau to chimeric and a humanized candidate was also confirmed by Biacore by loading the antibody onto a Protein G chip and adding 250 nM FL Tau.

[10] = target: T2, full length Tau (2N4R, htau40) (human, UniProt P10636 1-758); assay: Octet, antibody on Protein G sensor, FL Tau in solution
T2 construct: Generated and purified by Genscript; also called FL Tau; FLT
T2 sequence (P10636 other isoform, or with tags, fused parts or gaps limits assumed): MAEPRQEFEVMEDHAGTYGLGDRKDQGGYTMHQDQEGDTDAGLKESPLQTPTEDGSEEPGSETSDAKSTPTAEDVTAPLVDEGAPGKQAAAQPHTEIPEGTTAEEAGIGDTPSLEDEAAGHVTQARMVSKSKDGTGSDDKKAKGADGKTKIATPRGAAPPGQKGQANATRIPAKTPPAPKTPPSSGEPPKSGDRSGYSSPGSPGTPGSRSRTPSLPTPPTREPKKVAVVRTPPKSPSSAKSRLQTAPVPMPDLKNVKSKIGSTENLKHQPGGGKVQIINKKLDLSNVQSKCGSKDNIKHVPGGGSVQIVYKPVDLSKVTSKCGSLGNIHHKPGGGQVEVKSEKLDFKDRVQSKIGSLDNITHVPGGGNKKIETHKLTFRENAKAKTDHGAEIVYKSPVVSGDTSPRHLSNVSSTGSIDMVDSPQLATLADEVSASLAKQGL
Procedure, shortened: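 Antibody loaded on Protein G biosensors was tested by Bio-Layer Interferometry (OctetRed96) for binding to purified full-length tau in solution. The tau was made and purified by Genscript. Full-length tau was applied at 500 nM. The result is the binding signal response in nm.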

[11] = target: T1, TauC3 (C-terminally truncated tau …); assay: Biacore kinetics, TauC3 amine-coupled on CM5, antibody series, 1:1 global fit
Excerpt: To determine the affinity of the binding interactions, a biacore kinetic assay was developed which involved immobilizing TauC3 on a CM5 chip via amine coupling and injecting a concentration series of the respective antibody over it.

[12] = target: T1, TauC3 (C-terminally truncated tau …); assay: Biacore off-rate ranking, TauC3 amine-coupled on CM5, one antibody concentration; two-phase decay fit, slow phase; set-up: unit not given here
Procedure: as §2

[13] = target: T1, TauC3 (C-terminally truncated tau …); assay: binding ELISA on coated TauC3, OD650; remark: listed apart in the source
Procedure, shortened: as §1

[14] = target: T1, TauC3 (C-terminally truncated tau …); assay: binding ELISA, TauC3 coated; FIG. 16 ELISA
Procedure, shortened: as §1

[15] = target: T1, TauC3 (C-terminally truncated tau …); assay: binding ELISA on coated TauC3, OD650; remark: listed apart in the source
Procedure, shortened: as §1

[16] = target: T1, TauC3 (C-terminally truncated tau …); assay: binding ELISA, TauC3 coated
Procedure, shortened: as §1

[17] = target: T1, TauC3 (C-terminally truncated tau …); assay: binding ELISA on coated TauC3, OD650; remark: listed apart in the source
Procedure, shortened: as §1

[18] = target: T1, TauC3 (C-terminally truncated tau …); assay: binding ELISA on coated TauC3, OD650; remark: listed apart in the source
Procedure, shortened: as §1

EC50 [1]: 0.92 nM
EC50 [2]: 0.795 nM
EC50 [3]: 1.39 nM
B1: Tau01 HBKA (antibody, V domains shown)
VH: EVQVVESGGGLVQPGGSLKLSCAASGFTFNTYAMNWVRQASGKGLEWVARIRSKSNNYATYYADSVKGRFTISRDDSKSMVYLQMDSLKTEDTAVYYCVGGGDFWGQGTLVTVSS
VL: DIQMTQSPSSLSASVGDRVTITCRASQEISVYLGWYQQKPGKAPKRLIYGAFKLQSGVPSRFSGSRSGTEFTLTISSLQPEDFATYYCLQYVRYPWTFGGGTKVEIK
notes: human IgG4 kappa (HuG4K)

EC50 [4]: 1.57 nM
EC50 [3]: 1.34 nM
B2: Tau01 HCKC (antibody, V domains shown)
VH: B1 VH with E1L, V4L, A49G, D64A, V81A
VL: B1 VL with G34S, Y36F, F71Y
notes: human IgG4 kappa (HuG4K)

EC50 [5]: 0.604 nM
B3: Tau01 HOKG (antibody, V domains shown)
VH: B1 VH with E1L, D64A, V81A
VL: B1 VL with K53T
notes: human IgG4 kappa (HuG4K)

Kd [6]: 0.059 nM
koff [6]: 0.00352 s⁻¹
kon [6]: 5.93e+07 M⁻¹ s⁻¹
EC50 [7]: 0.583 nM
EC50 (read off the curve) [8]: ~0.7 nM
koff [9]: 0.000473 s⁻¹
binding result [10]: no binding
Kd [11]: 0.0594 nM
koff [11]: 0.00352 s⁻¹
Kslow [12]: 0.000349
B4: Tau01 HMKO HuG4k (antibody, V domains shown)
VH: B1 VH with E1L, V4L, D64A, V81A
VL: B1 VL with K53S, F71Y
notes: human IgG4 kappa (HuG4K)

Kd [6]: 0.02 nM
koff [6]: 0.00283 s⁻¹
kon [6]: 1.41e+08 M⁻¹ s⁻¹
EC50 [7]: 0.437 nM and 0.532 nM
EC50 (read off the curve) [8]: ~0.8 nM
koff [9]: 0.000953 s⁻¹
binding result [10]: no binding
Kd [11]: 0.0201 nM
koff [11]: 0.00283 s⁻¹
Kslow [12]: 0.000883
B5: Tau01 HMKE HuG4k (antibody, V domains shown)
VH: B1 VH with E1L, V4L, D64A, V81A
VL: B1 VL with Y36F
notes: human IgG4 kappa (HuG4K); also called KMKE

EC50 [5]: 0.556 nM
B6: Tau01 HOKJ (antibody, V domains shown)
VH: B1 VH with E1L, D64A, V81A
VL: B1 VL with K53S
notes: human IgG4 kappa (HuG4K)

Kd [6]: 0.013 nM
koff [6]: 0.00186 s⁻¹
kon [6]: 1.43e+08 M⁻¹ s⁻¹
EC50 [7]: 0.499 nM
EC50 (read off the curve) [8]: ~0.6 nM
koff [9]: 0.000811 s⁻¹
binding result [10]: no binding
koff [11]: 0.00186 s⁻¹
kon [11]: 1.43e+08 M⁻¹ s⁻¹
Kslow [12]: 0.000777
B7: Tau01 HMKP HuG4k (antibody, V domains shown)
VH: B1 VH with E1L, V4L, D64A, V81A
VL: B1 VL with Y36F, F71Y
notes: human IgG4 kappa (HuG4K); Lead candidate

EC50 [5]: 0.389 nM
B8: Tau01 HOKA (antibody, V domains shown)
VH: B1 VH with E1L, D64A, V81A
VL: B1 VL
notes: human IgG4 kappa (HuG4K)

EC50 [13]: 2.93 nM
B9: Tau01 HFKB (antibody, V domains shown)
VH: B1 VH with E1L, V4L, A49G, Y61A, D64A, S79N, M80T, V81A
VL: B1 VL with G34S, Y36F, P44I, K53T, T69S, F71Y
notes: human IgG4 kappa (HuG4K)

Kd [6]: 0.025 nM
koff [6]: 0.0015 s⁻¹
kon [6]: 6.03e+07 M⁻¹ s⁻¹
EC50 [7]: 0.624 nM
EC50 (read off the curve) [8]: ~0.5 nM
koff [9]: 0.000878 s⁻¹
binding result [10]: no binding
Kd [11]: 0.0249 nM
Kslow [12]: 0.000823
B10: Tau01 HMKN HuG4k (antibody, V domains shown)
VH: B1 VH with E1L, V4L, D64A, V81A
VL: B1 VL with K53T, F71Y
notes: human IgG4 kappa (HuG4K)

EC50 [14]: 0.81 nM
EC50 [15]: 0.402 nM
EC50 [16]: 0.78 nM
EC50 [5]: 0.402 nM
EC50 [2]: 0.767 nM
EC50 [17]: 0.402 nM
B11: Tau01 HBKB (antibody, V domains shown)
VH: B1 VH
VL: B1 VL with G34S, Y36F, P44I, K53T, T69S, F71Y
notes: human IgG4 kappa (HuG4K)

EC50 [4]: 1.52 nM
EC50 [18]: 0.959 nM
EC50 [3]: 6.45 nM
B12: Tau01 HCKA (antibody, V domains shown)
VH: B1 VH with E1L, V4L, A49G, D64A, V81A
VL: B1 VL
notes: human IgG4 kappa (HuG4K)

EC50 [14]: 0.84 nM
EC50 [3]: 0.99 nM
B13: Tau01 HBKC (antibody, V domains shown)
VH: B1 VH
VL: B1 VL with G34S, Y36F, F71Y
notes: human IgG4 kappa (HuG4K)

EC50 [5]: 0.482 nM
B14: Tau01 HOKI (antibody, V domains shown)
VH: B1 VH with E1L, D64A, V81A
VL: B1 VL with F71Y
notes: human IgG4 kappa (HuG4K)

EC50 [5]: 0.51 nM
B15: Tau01 HOKB (antibody, V domains shown)
VH: B1 VH with E1L, D64A, V81A
VL: B1 VL with G34S, Y36F, P44I, K53T, T69S, F71Y
notes: human IgG4 kappa (HuG4K)
